Target: Recombinant Human OX40L (Leader sequence, Isoleucine Zipper and FLAG Sequence Included) (human)
Test: cell-based or functional assay

Sequence of Recombinant Human OX40L (Leader sequence, Isoleucine Zipper and FLAG Sequence Included) (human) (chain, as listed by the source limits assumed): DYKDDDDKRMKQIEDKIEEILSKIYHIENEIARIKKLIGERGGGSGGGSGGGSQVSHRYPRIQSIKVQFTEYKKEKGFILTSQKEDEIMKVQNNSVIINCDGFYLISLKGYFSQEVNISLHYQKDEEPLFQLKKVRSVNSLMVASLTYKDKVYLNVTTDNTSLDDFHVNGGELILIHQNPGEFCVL

B1: 10A07 (human) (antibody, V domains shown)
VH: EVQLVESGGVLVQPGGSLRLSCAASGFTFSSYIMTWVRQAPGKGLEWVSGISGSGGGTYYADSMKGRFTISRDNSKNTLYLQMNSLRVEDTAVYYCAKDRLGPITLVRGGYYYGMDVWGQGTTVTVSS
VL: DIQMTQSPSSLSASVGDRVTITCRASQSISDYLNWYQQKPGKAPKFLIYAASSLQSGVPSRFSGSGSGTDFTLTVSSLQPEDFATYYCQQSYSTPRTFGQGTRVEIKR
Primary T-cell Assay IC50 nM (recombinant OX40L induced IL2 release from primary human T cells): 0.83 nM

B2: 2D10 (human) (antibody, human IgG4 S228P, kappa, V domains shown)
VH: EVQLVESGGGLVQPGGSLRLSCAASGFTFSNYAMNWVRQAPGKGLEWVSTISGSGGATRYADSVKGRFTISRDNSRNTVYLQMNSLRVEDTAVFYCTKDRLIMATVRGPYYYGMDVWGQGTTVTVSS
VL: DIQMTQSPSSLSASVGDRVTITCRASQSISSYLNWYQQKPGKAPNLLIYAASSLQSGVPSRFSGSGSETDFTLTISSLQPEDFATYYCQQSHSVSFTFGPGTKVDIKR
Primary T-cell Assay IC50 nM (recombinant OX40L induced IL2 release from primary human T cells): 0.81 nM
